Experimental data reported in publication PMC7831379.

Biological target: pre-stabilized HIV-1 CA A14C/E45C/W184A/M185A hexamer (HIV-1)
Assay: crystal structure

pre-stabilized HIV-1 CA A14C/E45C/W184A/M185A hexamer (natural protein)
stoichiometry N: 6
